± gives the standard deviation.
Test: protein stability index of a GFP-peptide fusion (GPS, HEK-293T) (PSI 1-6); higher = more stable
Details: c terminus: a fixed tail appended
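Further: 24-mer peptide tiles fused after GFP, lentivirally expressed, FACS-sorted into six equal bins by GFP/DsRed ratio, decoded by Illumina sequencing, PSI is the read-weighted mean bin number.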

Row | Sequence | protein stability index (treatment: DMSO) | protein stability index (treatment: MLN4924 1 uM, 8 h)
1 | QPPEESQPPQSQAQVPPAAPHHHH [PLK2] | 5.41 ± 0.11 | 5.43 ± 0.18
2 | ERLERAVSDRLAPGAPRGNPPKAS [MYCL] | 4.84 ± 0.44 | 5.23 ± 0.26
3 | TFDAITTIRGEVMFFKDRFYMRTN [MMP1] | 2.25 ± 0.41 | 2.07 ± 0.19
4 | DDVIVQGDIQELYDTTLALGHAAA [GLT8D2] | 4.47 ± 0.39 | 4.42 ± 0.088
5 | SFTQGEGARPLSTRVPRAAIVFTD [MATN2] | 3.5 ± 0.38 | 3.55 ± 0.12
6 | QSLDQEILLKVKTEIEEELKSLDK [BCL2L13] | 4.51 ± 0.42 | 4.93 ± 0.24
7 | KEEREDTPIQLQELLALETALGGQ [TCAP] | 5.17 ± 0.24 | 5.04 ± 0.14
8 | RSKYDYLMILRRVVNESTVCLMGH [TENT5C] | 3.05 ± 0.86 | 2.52 ± 0.55
9 | ESESPQSHRAAGSGVSDYDYLDLD [TRIM9] | 5.5 ± 0.19 | 5.35 ± 0.2
10 | GLLDLNNAILQLVKKYKSMKLEKE [ESRRG] | 2.65 ± 0.14 | 2.9 ± 0.82
11 | KLMKEILDKKVEKVTISNRLVSSP [HSP90AB1] | 2.81 ± 0.25 | 2.84 ± 0.42
12 | AETAGAIMAFFLCLGLALGAVFSF [SLC29A1] | 3.35 ± 0.66 | 3.03 ± 0.24
13 | TGSKEKGLTKKRTKVQKKSLLLKK [NOP53] | 4.48 ± 0.24 | 4.72 ± 0.22
14 | GLETGDWGGAPKEGSIWRGAQMEK [ZSWIM9] | 4.07 ± 0.3 | 4.45 ± 0.22
15 | NSQVHRETEDVDYGETDFHKQDGK [TMEM40] | 5.54 ± 0.12 | 5.52 ± 0.17
16 | PICVQIPWDKNPEALAKWAEGRTG [CRY1] | 3.51 ± 0.35 | 3.6 ± 0.24
17 | GHLFPPPTPIFAGGANDRWVRSVS [WSB1] | 2.66 ± 0.18 | 2.39 ± 0.4
18 | DKDDEEKPKIEDVGSDEEDDSGKD [HSP90AB1] | 5.57 ± 0.34 | 5.54 ± 0.062
19 | GYRQQKAYIATQGPLAETTEDFWR [PTPRD] | 3.28 ± 0.22 | 3.36 ± 0.42
20 | LHRLFREKSLDQLKSISAEEILTL [PHTF1] | 2.11 ± 0.45 | 2.25 ± 0.47
21 | MSYFGEHFWGEKNHGFEVLYHSVK [FCHO1] | 2.59 ± 0.24 | 2.11 ± 0.16
22 | AFHRKSHSLDLNISEKLTLLPTLY [RNF180] | 2.34 ± 0.39 | 2.1 ± 0.34

Row | Sequence | protein stability index (treatment: DMSO) | protein stability index (treatment: MLN4924 1 uM, 8 h)
23 | GVNTVFHCASPPPSSNNKELFYRV [NSDHL] | 2.53 ± 0.23 | 2.4 ± 0.1
24 | SQTPILQALQHVQASCDEAHKMKF [INTS3] | 3.88 ± 0.14 | 3.93 ± 0.21
25 | FCQTDQTCICYLCMFQEHKNHSTV [TRIM29] | 2.2 ± 0.085 | 2.66 ± 0.32
26 | RFELINIDDLEDDPVVNGERSGCA [TCF25] | 4.69 ± 0.26 | 4.68 ± 0.26
27 | KAVMKTSVLLSWEIPENYNSAMPF [PTPRD] | 2.26 ± 0.67 | 2.26 ± 0.43
28 | VRFDGYVIDGATALWCAAGAGHFE [FEM1B] | 2.91 ± 0.6 | 2.92 ± 0.64
29 | RDVAAWGRARATGGDLEEQQHAEG [DNAAF3] | 5.43 ± 0.24 | 5.3 ± 0.086
30 | FVTGNCLEISPDCSQYDRVYCGAG [PCMTD2] | 2.43 ± 0.19 | 2.33 ± 0.14
31 | QMLLNVEANSAKVQEDLEAEFQSL [FSD1] | 4.92 ± 0.21 | 4.96 ± 0.2
32 | LKLARKAYHDPMLKLSIMSEEELT [NET1] | 3.06 ± 0.2 | 3.14 ± 0.21
33 | GGGEGKAMYIDTEGTFRPERLLAV [RAD51] | 2.69 ± 0.32 | 2.9 ± 0.37
34 | GWSTPPKCRSTISAEKCGPPPPID [CFHR2] | 3.72 ± 0.38 | 3.93 ± 0.25
35 | LARGIHVAGILSLLLGTAYSFYLF [POMT2] | 2.6 ± 0.62 | 2.65 ± 0.47
36 | AYAHPQQKVAVYRALQAALAESGG [TRADD] | 2.43 ± 0.51 | 2.65 ± 0.34
37 | LSLTGVSLAGALGVKFVGLFIILQ [POMT2] | 3.05 ± 1.1 | 2.39 ± 1.1
38 | TIMQAVSQIRLNREHKETCEMDWS [TEKT4] | 2.3 ± 0.27 | 2.44 ± 0.21
39 | HGDARATGREMHGKNWSKLCKDCQ [TPPP] | 4.18 ± 0.13 | 4.53 ± 0.23
40 | QSFGVASASSIKQILLEWCRSKTL [SMTNL2] | 2.41 ± 0.27 | 2.15 ± 0.39
41 | ETKGQINNSIKDLTDGHFENILAD [SERPINB5] | 4.84 ± 0.42 | 4.9 ± 0.32
42 | HSRRHESYSRGYSYHDGYGEALGR [RBMY1A1] | 3.14 ± 0.3 | 3.24 ± 0.36
43 | RGMDLSWESRTGDQYSYSSLVMGS [LCOR] | 2.65 ± 0.41 | 2.92 ± 0.28
44 | SGSESPSDSGKDLPEPSKRGPPHG [MYCL] | 5.4 ± 0.24 | 5.32 ± 0.12

Row | Sequence | protein stability index (treatment: DMSO) | protein stability index (treatment: MLN4924 1 uM, 8 h)
45 | THNIAHGSLGFEPVYVSCIAQDTC [SPAG8] | 2.69 ± 0.14 | 2.64 ± 0.2
46 | FTFPGMSLDKRQGEGLRIYWGSPE [TPRG1] | 2.25 ± 0.35 | 2.38 ± 0.53
47 | LRLADEFGVAVVITNQVVAQVDGA [RAD51] | 2.31 ± 0.52 | 2.1 ± 0.39
48 | LVETAIQSLDEPGGATFLLTAKQL [TRIM63] | 2.75 ± 0.14 | 2.66 ± 0.45
49 | RLGWQQQAELQELEERLQLQFEAE [MTUS2] | 4.55 ± 0.24 | 4.65 ± 0.11
50 | LRTSNGQPVKTAGEITQHNVTELL [DNAAF3] | 4.14 ± 0.23 | 4.33 ± 0.17
51 | FRIIDSDHSGFISLDEFRQTWKLF [PPEF2] | 2.97 ± 1 | 2.37 ± 0.48
52 | PVAQSTDGIRGKVGHARGLHAWQI [SPSB4] | 2.68 ± 0.37 | 2.84 ± 0.29
53 | GTTYLPGIVGLNNIKANDYANAVL [USP39] | 2.47 ± 0.097 | 2.44 ± 0.23
54 | ISQMDSDQFIPIWTVANMEEIKKL [LARP4] | 3.25 ± 0.19 | 3.32 ± 0.16
55 | RFRSCNTEDCPTGSALTFREEQCA [ADAMTS4] | 3.75 ± 0.3 | 4.24 ± 0.27
56 | RNIHRHVILSEIKEAVAALPPDVT [TCF25] | 3.35 ± 0.084 | 3.62 ± 0.28
57 | HEEQLQRLKLLKDREVDAATSATS [FBF1] | 5.18 ± 0.28 | 5.25 ± 0.24
58 | GPIPSHMIHRTRKQKYFYKGGLVW [CLK3] | 2.47 ± 0.027 | 2.45 ± 0.24
59 | PETAHPNLVLSEDRKSVKFVETRL [TRIM39] | 4.04 ± 0.45 | 4.15 ± 0.16
60 | LSAALASSQKQHSFTSSDKTIKSF [C8orf76] | 3.77 ± 0.35 | 3.74 ± 0.2
61 | YLTVVFEHDAWFIFFMAAFAFSNG [SLC29A1] | 3.18 ± 0.41 | 2.92 ± 0.59
62 | LASITETIQVHRRYWRSLRVMKVE [HDAC6] | 2.42 ± 0.3 | 2.31 ± 0.16
63 | AACIAYIRLTQYIDGQGRPRTSQS [CAMK2B] | 2.24 ± 0.54 | 2.48 ± 0.23
64 | PASPNPFVHELHLSRLQRVKFCLL [LPCAT4] | 2.56 ± 0.6 | 2.51 ± 0.3
65 | LHAQLRDLTSSSSDELSWIIELLE [ELF3] | 2.83 ± 0.22 | 2.99 ± 0.39
